Each binder was assayed against T1, human αvβ3 integrin ITGAVB3 (human, UniProt P06756 31-992; P05106 27-718, limits assumed) (assay: phage ELISA, coated ITGAVB3, anti-M13-HRP, 490 nm).
T1 construct: Recombinant heterodimer used as immunogen, ELISA coating and SPR ligand; also called A5B3; A5b3
Description: Further, in order to perform phage ELISA, 2.5 μg/mL to […] of a target protein and a control protein were coated at 4 degrees C. using a coating buffer, and the wells were washed 3 times with 200 μL washing buffer per well. The wells were blocked with 200 μL PBS-M for two hours at room temperature. The blocking buffer was removed and the plate was washed 6 times with the washing solution. Thereafter, 100 μL of phage solution was added to the washing buffer per well and incubation was executed at room temperature for 1 to 2 hours. Then, washing was performed 6 times with washing buffer. HRP-binding anti-M13 antibody (GE healthcare) was diluted with 1:5,000 blocking buffer. 100 μL of diluted conjugate was added onto each well, and incubation was performed at room temperature for 1 hour, and washing was carried out 6 times with washing buffer. The HRP substrate solution was prepared as follows: A stock solution of OPD was prepared by dissolving 22 mg OPD (Sigma) in 100 mL of […] sodium citrate (pH 4.0), and 36 μL 30% H₂O₂ was added to 21 mL of OPL stock solution immediately before the detection step. 100 μL of substrate solution was added to each well and incubation was performed for 30 minutes at room temperature. Plates were analyzed using a micro plate reader set at 490 nm.

T1 sequence (P06756 31-992 limits assumed, chain 1 of 2): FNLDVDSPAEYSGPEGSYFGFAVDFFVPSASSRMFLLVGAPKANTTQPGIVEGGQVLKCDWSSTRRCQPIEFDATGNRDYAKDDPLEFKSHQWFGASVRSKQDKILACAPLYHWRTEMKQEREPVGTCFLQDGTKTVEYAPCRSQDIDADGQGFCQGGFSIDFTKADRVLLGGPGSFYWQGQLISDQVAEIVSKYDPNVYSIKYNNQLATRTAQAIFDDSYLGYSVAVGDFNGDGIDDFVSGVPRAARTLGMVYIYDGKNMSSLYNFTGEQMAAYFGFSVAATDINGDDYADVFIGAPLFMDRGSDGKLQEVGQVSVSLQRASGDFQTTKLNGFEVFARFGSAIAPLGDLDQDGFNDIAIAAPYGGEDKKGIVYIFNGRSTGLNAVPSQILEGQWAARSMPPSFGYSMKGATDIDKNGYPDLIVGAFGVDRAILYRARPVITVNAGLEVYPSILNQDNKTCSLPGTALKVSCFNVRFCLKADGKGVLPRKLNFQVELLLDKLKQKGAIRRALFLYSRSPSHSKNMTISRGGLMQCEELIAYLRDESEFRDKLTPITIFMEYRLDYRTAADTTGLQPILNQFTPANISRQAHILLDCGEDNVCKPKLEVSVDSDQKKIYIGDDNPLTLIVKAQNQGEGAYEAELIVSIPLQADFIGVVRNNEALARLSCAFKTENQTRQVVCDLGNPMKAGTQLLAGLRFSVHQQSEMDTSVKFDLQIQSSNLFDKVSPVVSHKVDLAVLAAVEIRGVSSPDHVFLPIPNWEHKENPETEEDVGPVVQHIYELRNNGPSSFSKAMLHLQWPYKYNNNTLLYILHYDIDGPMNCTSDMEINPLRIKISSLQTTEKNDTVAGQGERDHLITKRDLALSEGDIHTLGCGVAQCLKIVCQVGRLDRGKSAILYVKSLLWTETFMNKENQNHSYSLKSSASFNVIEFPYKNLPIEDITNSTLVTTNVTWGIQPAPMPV
T1 sequence (P05106 27-718 limits assumed, chain 2 of 2): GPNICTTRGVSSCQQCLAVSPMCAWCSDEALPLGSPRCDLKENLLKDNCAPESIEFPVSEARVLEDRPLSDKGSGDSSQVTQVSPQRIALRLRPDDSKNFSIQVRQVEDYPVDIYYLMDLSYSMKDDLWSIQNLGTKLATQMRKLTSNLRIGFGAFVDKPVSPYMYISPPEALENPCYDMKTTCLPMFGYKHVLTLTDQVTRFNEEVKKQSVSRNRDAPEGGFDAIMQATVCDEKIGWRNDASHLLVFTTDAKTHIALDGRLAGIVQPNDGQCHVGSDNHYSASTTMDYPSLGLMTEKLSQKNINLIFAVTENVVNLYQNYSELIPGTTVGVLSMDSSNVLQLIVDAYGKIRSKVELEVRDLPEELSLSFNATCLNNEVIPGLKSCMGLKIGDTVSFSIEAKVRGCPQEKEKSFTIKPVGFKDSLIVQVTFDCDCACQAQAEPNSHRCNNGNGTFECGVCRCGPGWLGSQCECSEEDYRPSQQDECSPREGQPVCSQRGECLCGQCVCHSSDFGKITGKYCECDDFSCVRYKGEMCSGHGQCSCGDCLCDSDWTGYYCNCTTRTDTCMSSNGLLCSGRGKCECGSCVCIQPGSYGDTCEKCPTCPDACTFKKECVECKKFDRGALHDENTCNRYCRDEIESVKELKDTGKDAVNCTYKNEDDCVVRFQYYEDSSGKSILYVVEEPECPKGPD

OD490 | Binder
2.14 | clone 10 (VHH) VHH: EVQLVESGGGSVQAGGSLRLSCVVSGYTCSVYDMIWYRQPPGKEREFVSLINSNGRTTYADSVKGRFTISQNNAKNTVYLQMNSLKPEDTAMYYCHAACYSPSRLNYWGQGTQVTVSS
1.86 | clone 33 (VHH) VHH: EVQLVESGGGSVQAGGSLRLSCVVSGYTCSVYDMIWYRQPPGKEREFVSLINSNGRTTYADSVKGRFTISQNNAKNTVYLQMNSLKPEDTAMYYCHAACYSPSRLNYWGQGTQVTVSS
2.01 | clone 26 (VHH) VHH: QVQLVESGGGSVQAGGSLRLSCVVSGYTCSVYDMIWYRQPPGKEREFVSLINSNGRTTYADSVKGRFTISQNNAKNTVYLQMNSLKPEDTAMYYCHAACYSPSRLNYWGQGTLVTVSS
1.95 | clone 8 (VHH) VHH: DVQLVESGGGSVQPGGSLRLSCAASGYTVENSCMAWFRQAPGKEREVVATIVTNNATGTFYADSVKGRFTVSQDNAKNTLNLQMNSLEPEDTAMYYCAADTKWIVCSRGYRYTPNWANQFKYWGQGTQVTVSS
2.01 | clone 34 (VHH) VHH: DVQLVESGGGSVQPGGSLRLSCAASGYTVENSCMAWFRQAPGKEREVVATIVTNNATGTFYADSVKGRFTVSQDNAKNTLNLQMNSLEPEDTAMYYCAADTKWIVCSRGYRYTPNWANQFKYWGQGTQVTVSS
1.98 | clone 36 (VHH) VHH: DVQLVESGGGSVQPGGSLRLSCAASGYTVENSCMAWFRQAPGKEREVVATIVTNNATGTFYADSVKGRFTVSQDNAKNTLNLQMNSLEPEDTAMYYCAADTKWIVCSRGYRYTPNWANQFKYWGQGTQVTVSS
2.12 | clone 38 (VHH) VHH: DVQLVESGGGSVQPGGSLRLSCAASGYTVDNSCMAWFRQAPGKEREVVATIVTNNATSTFYADSVKGRFTVSHDNAKNTLNLQMNTLEPEDTAMYYCAADTKWIVCSRGYRYTPNWANHFNYWGQGTLVTVSS
1.97 | clone 30 (VHH) VHH: DVQLVESGGGSVQPGGSLRLSCAASGYTVDNSCMAWFRQAPGKEREVVATIVTNNATSTFYADSVKGRFTVSHDNAKNTLNLQMNTLEPEDTAMYYCAADTKWIVCSRGYRYTPNWANHFNYWGQGTLVTVSS
2.04 | clone 40 (VHH) VHH: DVQLVESGGGSVQPGGSLRLSCAASGYTVDNSCMAWFRQAPGKEREVVATIVTNNATSTFYADSVKGRFTVSHDNAKNTLNLQMNTLEPEDTAMYYCAADTKWIVCSRGYRYTPNWANHFNYWGQGTLVTVSS
2.09 | clone 37 (VHH) VHH: HVQLVESGGGSVQTGGSLRLSCAASGYTSSTVYMAWFRQTPGKQREGVAAIYTGGGPTYYADSVKGRFTISQDNAKNTVYLQMNTLKPEDTAMYYCAADRYVYRLVTNWYRPSFYTYWGQGTQVTVSS
2.06 | VHH-12 (VHH, also called clone 12) VHH: EVQLVESGGGSVQPGESLRLSCVASGYTVSSSCMAWFRQAPGKEREVVATIVVTSDTTSTFYADSVKGRFTISPDNAKNTLNLQMNSLEPSDTAMYYCAADRKWNVCSRGYRYTPNWANQFTFWGQGTQVTVSS
1.94 | clone 28 (VHH) VHH: EVQLVESGGGSVQPGESLRLSCVASGYTVSSSCMAWFRQAPGKEREVVATIVVTSDTTSTFYADSVKGRFTISPDNAKNTLNLQMNSLEPSDTAMYYCAADRKWNVCSRGYRYTPNWANQFTFWGQGTQVTVSS
1.88 | clone 32 (VHH) VHH: EVQLVESGGGSVQPGESLRLSCVASGYTVSSSCMAWFRQAPGKEREVVATIVVTSDTTSTFYADSVKGRFTISPDNAKNTLNLQMNSLEPSDTAMYYCAADRKWNVCSRGYRYTPNWANQFTFWGQGTQVTVSS
1.94 | clone 19 (VHH) VHH: EVQLVESGGGSVQPGESLRLSCVASGYTVSSSCMAWFRQAPGKEREVVATIVVTSDTTSTFYADSVKGRFTISPDNAKNTLNLQMNSLEPSDTAMYYCAADRKWNVCSRGYRYTPNWANQFTFWGQGTQVTVSS
1.93 | clone 14 (VHH) VHH: DVQLVESGGGSVQPGESLRLSCVASGYTVSSSCMAWFRQAPGKEREVVATIVVTSDTTSTFYADSVKGRFTISPDNAKNTLNLQMNSLEPSDTAMYYCAADRKWNVCSRGYRYTPNWANQFTFWGQGTLVTVSS
1.8 | clone 39 (VHH) VHH: EVQLVESGGGSVQPGESLRLSCVASGYTVSSSCMAWFRQAPGKEREVVATIVVTSDTTSTFYADSVKGRFTISPDNAKNTLNLQMNSLEPPDTAMYYCAADRKWNVCSRGYRYTPNWANQFTFWGQGTQVTVSS
2.04 | clone 29 (VHH) VHH: DVQLVESGGGSVQPGESLRLSCVASGYTVSSSCMAWFRQAPGKEREVVATIVVTSDTTSTFYADSVKGRFTISPDNAKNTLNLQMNSLEPSDTAMYYCAADRKWNVCSRGYRYTPNWANQFTFWGQGTLVTVSS
1.97 | clone 27 (VHH) VHH: HVQLVESGGGSVQPGESLRLSCVASGYTVSSSCMAWFRQAPGKEREVVATIVVTSDTTSTFYADSVKGRFTISPDNAKNTLNLQMNSLEPSDTAMYYCAADRKWNVCSRGYRYTPNWANQFTFWGQGTQVTVSS
1.88 | clone 3 (VHH) VHH: EVQLVESGGGSVQPGESLRLSCVASGYTVSSSCMAWFRQAPGKEREVVATIVVTSDTTSTFYADSVKGRFTISPDNAKNTLNLQMNSLEPPDTAMYYCAADRKWNVCSRGYRYTPNWANQFTFWGQGTQVTVSS
2.02 | clone 2 (VHH) VHH: EVQLVESGGGSVQPGESLRLSCVASGYTVSSSCMAWFRQAPGKEREVVATIVVTSDTTSTFYADSVKGRFTISPDNAKNTLNLQMNSLEPPDTAMYYCAADRKWNVCSRGYRYTPNWANQFTFWGQGTQVTVSS
1.95 | clone 21 (VHH) VHH: HVQLVESGGGSVQPGESLRLSCVASGYTVSSSCMAWFRQAPGKEREVVATIVVTSDTTSTFYADSVKGRFTISPDNAKNTLNLQMNSLEPSDTAMYYCAADRKWNVCSRGYRYTPNWANQFTFWGQGTQVTVSS
2.16 | clone 4 (VHH) VHH: EVQLVESGGGSVQPGESLRLSCVASGYTVSSSCMAWFRQAPGKEREVVATIVVTSDTTSTFYADSVKGRFTISPDNAKNTLNLQMNSLEPPDTAMYYCAADRKWNVCSRGYRYTPNWANQFTFWGQGTQVTVSS

The binders below were run against T1, human αvβ3 integrin ITGAVB3 (assay: ELISA of soluble VHH (TG1 lysate), induced at 37 C, coated ITGAVB3).

OD490 | Binder
1.93 | VHH-12 (VHH, also called clone 12) VHH: EVQLVESGGGSVQPGESLRLSCVASGYTVSSSCMAWFRQAPGKEREVVATIVVTSDTTSTFYADSVKGRFTISPDNAKNTLNLQMNSLEPSDTAMYYCAADRKWNVCSRGYRYTPNWANQFTFWGQGTQVTVSS

These binders were tested against T1, human αvβ3 integrin ITGAVB3 (assay: ELISA of soluble VHH, induced at 37 C; coating not given).

OD490 | Binder
1.23 | VHH-12 (VHH, also called clone 12) VHH: EVQLVESGGGSVQPGESLRLSCVASGYTVSSSCMAWFRQAPGKEREVVATIVVTSDTTSTFYADSVKGRFTISPDNAKNTLNLQMNSLEPSDTAMYYCAADRKWNVCSRGYRYTPNWANQFTFWGQGTQVTVSS

What follows are binders tested against T1, human αvβ3 integrin ITGAVB3 (assay: ELISA of soluble VHH (TG1 lysate), induced at 30 C, coated ITGAVB3).

OD490 | Binder
1.87 | VHH-12 (VHH, also called clone 12) VHH: EVQLVESGGGSVQPGESLRLSCVASGYTVSSSCMAWFRQAPGKEREVVATIVVTSDTTSTFYADSVKGRFTISPDNAKNTLNLQMNSLEPSDTAMYYCAADRKWNVCSRGYRYTPNWANQFTFWGQGTQVTVSS

These binders were tested against T1, human αvβ3 integrin ITGAVB3 (assay: SPR, αvβ3 integrin immobilised on CMDH chip, nanobody as analyte).
Description: Specifically, a CMDH chip (Carboxymethyl Dextran Hydrogel Surface Sensor Chip, Reichert Technologies) coated with Dextran was mounted on an SPR equipment (Reichert SR7500DC system) to perform immobilization of αᵥβ₃ integrin antigen. Then, an analysis of the affinity of the selected antibody based on the concentration was performed.

Kd | koff | kon | Binder
15.5 nM | 0.000974 s⁻¹ | 62700 M⁻¹ s⁻¹ | single-domain antibody VHH-22 containing His6 tag (VHH, also called Nanobody #22) VHH: QVQLVESGGGSVQAGGSLRLSCVVSGYTCSVYDMIWYRQPPGKEREFVSLINSNGRTTYADSVKGRFTISQNNAKNTVYLQMNSLKPEDTAMYYCHAACYSPSRLNYWGQGTLVTVSS
8.83 nM | 0.000871 s⁻¹ | 98600 M⁻¹ s⁻¹ | single-domain antibody VHH-25 containing His6 tag (VHH, also called Nanobody #25; pALT-Avb3 VHH25 product) VHH: EVQLVESGGGSVQAGGSLRLSCVVSGYTCSVYDMIWYRQPPGKEREFVSLINSNGRTTYADSVKGRFTISQNNAKNTVYLQMNSLKPEDTAMYYCHAACYSPSRLNYWGQGTQVTVSS
9.38 nM | 0.00108 s⁻¹ | 115000 M⁻¹ s⁻¹ | single-domain antibody VHH-13 containing His6 tag (VHH, also called Nanobody #13) VHH: HVQLVESGGGSVQPGESLRLSCVASGYTVSSSCMAWFRQAPGKEREVVATIVVTSDTTSTFYADSVKGRFTISPDNAKNTLNLQMNSLEPSDTAMYYCAADRKWNVCSRGYRYTPNWANQFTFWGQGTQVTVSS

The binders below were run against T1, human αvβ3 integrin ITGAVB3 (assay: ELISA of soluble VHH, induced at 30 C; coating not given).

OD490 | Binder
1.84 | VHH-12 (VHH, also called clone 12) VHH: EVQLVESGGGSVQPGESLRLSCVASGYTVSSSCMAWFRQAPGKEREVVATIVVTSDTTSTFYADSVKGRFTISPDNAKNTLNLQMNSLEPSDTAMYYCAADRKWNVCSRGYRYTPNWANQFTFWGQGTQVTVSS
